# Measured values reported in patent US9550980B2, “Composition and methods for the production of L-homoalanine” (The Regents of the University of California, priority 2010, dated 2017).
# B1: GDH2: evolved E. coli glutamate dehydrogenase mutant with K92V and T195S mutations (protein, listed as Escherichia coli)
# chain: MDQTYSLESFLNHVQKRDPNQTEFAQAVREVMTTLWPFLEQNPKYRQMSLLERLVEPERVIQFRVVWVDDRNQIQVNRAWRVQFSSAIGPYVGGMRFHPSVNLSILKFLGFEQTFKNALTTLPMGGGKGGSDFDPKGKSEGEVMRFCQALMTELYRHLGADTDVPAGDIGVGGREVGFMAGMMKKLSNNTACVFSGKGLSFGGSLIRPEATGYGLVYFTEAMLKRHGMGFEGMRVSVSGSGNVAQYAIEKAMEFGARVITASDSSGTVVDESGFTKEKLARLIEIKASRDGRVADYAKEFGLVYLEGQQPWSLPVDIALPCATQNELDVDAAHQLIANGVKAVAEGANMPTTIEATELFQQAGVLFAPGKAANAGGVATSGLEMAQNAARLGWKAEKVDARLHHIMLDIHHACVEHGGEGEQTNYVQGANIAGFVKVADAMLAQGVI
# Legend:
# [1] = Enzymatic assay of purified glutamate dehydrogenases, amination of 2-ketobutyrate (NADPH consumption at 340 nm); assay type: biochemical
# Description: To characterize the enzymes, both the wild-type glutamate dehydrogenase GDHwt and mutant GDH2 were added an N-terminal 6×His-tag, overexpressed, and purified through Ni-NTA columns. The kinetic parameters for […] of 2-ketoglutarate (cognate substrate) and 2-ketoisovalerate or 2-ketobutyrate (nonnatural substrates) were determined by monitoring the consumption of NADPH at 340 nm (FIG. 6). […] The increase in binding affinity is very helpful since high concentration of 2-ketobutyrate interferes with cellular metabolic activities (see, e.g. Daniel et al. (1983) Mol Gen Genet 190(3):452-458). On the basis of the crystallographic model for the active site of GDH, amino group of K92 hydrogenbonds to the γ-carboxyl group of 2-ketoglutarate and determines the substrate specificity (see, e.g. Stillman et al. (1993) J Mol Biol 234(4):1131-1139). Mutation of lysine to valine increases the hydrophobic character of the binding pocket, which explains why the specificity constant kcat/Km of GDH2 towards 2-ketobutyrate is 50-fold higher than that towards the natural substrate 2-ketoglutarate.
# Both gene fragments encoding wildtype glutamate dehydrogenase and GDH2 were amplified using primers GDHbamfwd and GDHbamrev. After digestion with BamHI, the gene fragments were inserted into expression plasmid pQE9 (Qiagen). The resulting expression plasmids were transformed into E. coli strain BL21(DE3) harboring pREP4 (Qiagen). Cells were inoculated from an overnight preculture at 1/100 dilution and grown in 200 mL 2XYT rich medium containing 50 mg/L ampicillin and 25 mg/L kanamycin. At an OD600 of 0.6, recombinant proteins were expressed by induction of the cell cultures with 0.1 mM IPTG, followed by incubation at 30° C. overnight. Overexpressed proteins were then purified with Ni-nitrilotriacetic acid columns. Protein concentration was determined by measuring UV absorbance at 280 nm.
# (§1) Enzymatic assay was performed in assay buffer (100 mM Tris buffer, pH 8.0) containing 0.2M NH4Cl, 0.2 mM NADPH, and various concentrations of 2-ketoacids. The reactions were started by adding the purified enzymes, and the consumption of NADPH was monitored at 340 nm (extinction coefficient, 6.22 mM^−1 cm^−1). Kinetic parameters (kcat and Km) were determined by fitting initial velocity data to the Michaelis-Menten equation using Origin.
# [2] = Enzymatic assay of purified glutamate dehydrogenases, amination of 2-ketoglutarate (NADPH consumption at 340 nm); assay type: biochemical
# Description: (§2) To characterize the enzymes, both the wild-type glutamate dehydrogenase GDHwt and mutant GDH2 were added an N-terminal 6×His-tag, overexpressed, and purified through Ni-NTA columns. The kinetic parameters for […] of 2-ketoglutarate (cognate substrate) and 2-ketoisovalerate or 2-ketobutyrate (nonnatural substrates) were determined by monitoring the consumption of NADPH at 340 nm (FIG. 6). […] The increase in binding affinity is very helpful since high concentration of 2-ketobutyrate interferes with cellular metabolic activities (see, e.g. Daniel et al. (1983) Mol Gen Genet 190(3):452-458). […]
# (§3) Both gene fragments encoding wildtype glutamate dehydrogenase and GDH2 were amplified using primers GDHbamfwd and GDHbamrev. […] Protein concentration was determined by measuring UV absorbance at 280 nm.
# as §1
# [3] = Enzymatic assay of purified glutamate dehydrogenases, amination of 2-ketoisovalerate (NADPH consumption at 340 nm); assay type: biochemical
# Description: as §2, §3, §1
# 2-ketobutyrate = experiment: Conversion of fed 2-ketobutyrate to L-homoalanine by E. coli BW25113 overexpressing amination enzymes; assay type: cell-based, Escherichia coli; set-up: L-homoalanine produced: unit not given here
# Description: FIG. 2 is a graph comparing different amination enzymes on the production of L-homoalanine. E. coli cultures were inoculated in M9 medium with addition of 10 g/L 2-ketobutyrate and incubated at 37° C. for 24 h. The horizontal axis labels are defined as follows: (A) Wild-type E. coli BW25113; overexpression of (B) transaminase IlvE (C) valine dehydrogenase from Streptomyces avermitilis; (D) valine dehydrogenase from Streptomyces coelicolor, (E) valine dehydrogenase from Streptomyces fradiae; (F) evolved glutamate dehydrogenase GDH1; and (G) evolved glutamate dehydrogenase GDH2. The error bars represent standard deviations from three independent experiments.
# In order to check if any endogenous transaminase of E. coli can work on 2-ketobutyrate, we fed 10 g/L 2-ketobutyrate to wildtype E. coli strain BW25113 growing in M9 medium. […] Since the branched-chain amino acid aminotransferase IlvE (see, e.g. Inoue K, et al. (1988) J Biochem 104(5):777-784) is likely to be a functional candidate, we cloned and overexpressed IlvE in BW25113, which increased the production of L-homoalanine to […] (FIG. 2B). […] However, high concentration of glutamate is needed to drive the reaction equilibrium because transamination is a reversible reaction process. Even under such extreme conditions, the conversion rate of transaminating 2-ketobutyrate to L-homoalanine is only 32%.
# To test the conversion of 2-ketobutyrate to L-homoalanine, plasmids pZElac_IlvE, pZElac_VDHsa, pZElac_VDHsc, pZElac_VDHsf, pZElac_GDH and pZElac_GDH2 were transformed into BW25113. The transformants were inoculated in M9 medium with 5 g/L yeast extract, 10 g/L ammonium hydrochloride and 20 g/L glucose. Once OD reached ˜1.0, 10 g/L 2-ketobutyrate plus 0.1 mM IPTG were added and incubated at 37° C. for 24 h. Amino acids were quantified as o-phthaldialdehyde (OPA) derivatives by HPLC analysis.
# [4] = test system: valine auxotrophic E. coli (ΔavtA, ΔilvE); experiment: Growth rescue of valine auxotrophic E. coli (ΔavtA, ΔilvE) in M9 minimal medium; assay type: cell-based, Escherichia coli; conditions: absence of valine
# From the text: FIG. 4A illustrates a binding pocket of Clostridium symbiosum glutamate dehydrogenase (PDB: 1BGV) complexed with its natural substrate glutamate. Residues K89, T193, V377, and S380 are within a radius of 6 Å of the γ-carbon of glutamate. […] The binding pocket is conserved, and the corresponding residues of E. coli GDH are K92, T195, V377, and S380. These residues were subjected to site-saturation mutagenesis with randomized NNK codon. A library size of 2 million members was transformed into valine auxotrophic E. coli and selected for mutants growing in M9 minimal medium. FIG. 4C is a graph showing the growth curve of E. coli (AavtA, AilvE) transformants in minimal medium. −Val means absence of valine. +Val means presence of valine. Or cells are transformed with GDH1 (K92L, T195A, V377A, and S380C mutations) or GDH2 (K92V and T195S mutations) mutant.
# To this end, we have developed a selection strategy to evolve GDH. Deletion of transaminase genes avtA and ilvE from the chromosome makes wild-type E. coli valine auxotrophic (see, e.g. Wang et al. (1987) J Bacteriol 169(9):4228-4234), whose growth in minimal medium can be rescued by a mutant GDH active on aminating the valine precursor 2-ketoisovalerate (FIG. 3B). […]
# threonine = experiment: Production of L-homoalanine from glucose by E. coli overexpressing GDH2 and threonine dehydratases; assay type: cell-based, Escherichia coli; conditions: overexpression in BW25113
# From the text: FIG. 5A is a graph with horizontal axis labels defined as follows: (1) BW25113; (2) BW25113 with overexpression of GDH2; (3) ATCC98082 with overexpression of TdcB & GDH2; (4) ATCC98082 with overexpression of IlvAEc & GDH2; (5) ATCC98082 with overexpression of IlvABS & GDH2; and (6) ATCC98082 (ArhtA) with overexpression of IlvABS and GDH2. FIG. 5B is a graph showing the yield of L-homolalanine biosynthesis from glucose. The error bars represent standard deviations from three independent experiments.
# To test the production of L-homoalanine from glucose, E. coli strain ATCC98082 harboring plasmid pZS_thrO (see, e.g. Zhang et al. (2008) Proc Natl Acad Sci USA 105(52):20653-20658) was transformed with pZElac_tdcB_GDH, pZElac_ilvAEC_GDH and pZElac_ilvABS_GDH. These transformants were subjected to fermentation using the following production medium: 30 g glucose, 17 g (NH4)2SO4, 2 g KH2PO4, 1 g MgSO4.7H2O, 2 g yeast extract, 0.1 g L-valine, 0.01 g FeSO4:7H2O and 0.01 g MnSO4:7H2O per liter. Antibiotics were added appropriately (ampicillin 50 mg/L, spectinomycin 25 mg/L). Overnight 2XYT culture were diluted 25× into fermentation medium and 0.1 mM isopropyl-b-D-thiogalactoside (IPTG) was added to induce protein expression. In shake flask experiments, the culture medium was buffered by addition of 30 g/L CaCO3. Cultures were incubated in 33° C. shaker (250 rpm) for 40-50 h until glucose was consumed.
molecule,measurement,setting,value
B1,decrease in Km on 2-ketobutyrate compared to GDHwt,[1],4 fold
same,increase in kcat on 2-ketobutyrate compared to GDHwt,[1],2 fold
same,kcat towards 2-ketobutyrate,"[1]; 100 mM Tris pH 8.0, 0.2M NH4Cl, 0.2 mM NADPH",90.2 s⁻¹
same,Km,"[1]; 100 mM Tris pH 8.0, 0.2M NH4Cl, 0.2 mM NADPH, read-out: Km towards 2-ketobutyrate",8.4 mM
same,"specificity constant kcat/Km towards 2-ketobutyrate, higher than towards 2-ketoglutarate",[1]; 2-ketobutyrate versus natural substrate 2-ketoglutarate,50 fold
same,"specificity constant kcat/Km towards 2-ketoglutarate, smaller than that of GDHwt",[2],"~3,000 fold"
same,kcat towards 2-ketoisovalerate relative to GDHwt,[3],five times higher kcat than GDHwt
same,productivity of L-homoalanine,2-ketobutyrate; 10 g/L 2-ketobutyrate fed,5.1 g/L/day
same,conversion yield of 2-ketobutyrate to L-homoalanine,"2-ketobutyrate; 10 g/L 2-ketobutyrate, no glutamate feeding",50%
same,L-homoalanine produced,"2-ketobutyrate; BW25113 transformant, 10 g/L 2-ketobutyrate fed, M9 medium, 37° C., 24 h",5.1
same,rescue of cell growth without valine,[4],successfully rescued the valine auxotrophic phenotype
same,L-homoalanine produced from glucose,threonine,0.1 g/L
